Assay results taken from article PMC4887914, “The Sp1-mediaded allelic regulation of MMP13 expression by an ESCC susceptibility SNP rs2252070”.

Target: Sp1 (UniProt P08047 2-785)
Experiment: EMSA; recombinant Sp1; supershift with Sp1 antibody; LightShift Chemiluminescent EMSA kit (Pierce), 25 °C, 20 min, 6% PAGE; 100-fold unlabeled competitor; buffer, salt and pH not stated
Settings: protein: commercial; label: 3' biotin; blunt

Sp1, sequence (P08047 2-785): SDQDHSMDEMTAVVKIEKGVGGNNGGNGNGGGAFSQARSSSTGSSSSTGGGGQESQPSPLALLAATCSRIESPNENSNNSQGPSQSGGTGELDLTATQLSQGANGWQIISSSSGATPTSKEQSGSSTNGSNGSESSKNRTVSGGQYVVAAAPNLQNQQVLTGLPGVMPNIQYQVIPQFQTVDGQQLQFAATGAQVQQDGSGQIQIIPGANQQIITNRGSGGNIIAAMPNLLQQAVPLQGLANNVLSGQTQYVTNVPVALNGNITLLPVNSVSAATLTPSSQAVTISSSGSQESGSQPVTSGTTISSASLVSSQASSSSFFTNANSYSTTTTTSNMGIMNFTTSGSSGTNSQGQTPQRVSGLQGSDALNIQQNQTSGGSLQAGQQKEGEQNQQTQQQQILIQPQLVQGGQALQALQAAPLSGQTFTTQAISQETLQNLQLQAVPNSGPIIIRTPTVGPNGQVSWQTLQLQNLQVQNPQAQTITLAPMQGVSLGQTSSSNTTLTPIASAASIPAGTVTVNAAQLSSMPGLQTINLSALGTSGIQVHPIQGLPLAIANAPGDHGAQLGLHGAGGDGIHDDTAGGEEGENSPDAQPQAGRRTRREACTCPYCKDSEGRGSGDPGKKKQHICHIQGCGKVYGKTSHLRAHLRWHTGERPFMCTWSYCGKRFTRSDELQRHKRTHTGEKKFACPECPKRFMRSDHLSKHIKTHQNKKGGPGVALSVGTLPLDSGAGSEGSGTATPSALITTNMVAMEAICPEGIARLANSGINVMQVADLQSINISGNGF

B1: MMP13 rs2252070G probe (dsDNA)
DNA 1: CCTTCAAGTGACTGGGAAGTGGAAACCT
DNA 2: AGGTTTCCACTTCCCAGTCACTTGAAGG
binding result: binds
